Assay results reported in patent US9573987B2 (priority 2011, dated 2017).
Read-outs that look alike come from different tables or passages of the source. Where a SMILES comes first, the peptide text is derived from it. Side-chain parts run from the residue outwards. [ ]: non-standard residue; d: D form. Phe(4-NH2) = Nc1ccc(C[C@H](N)C(=O)O)cc1; Aib = CC(C)(N)C(=O)O; Sar = CNCC(=O)O

Tests used:
[1] = test system: insulin receptor; conditions: background statement; cited from earlier work
[2] = biological target: T1, insulin subtype A receptor (IR-A) (Homo sapiens, UniProt P06213); test: Insulin subtype A receptor phosphorylation, receptor transfected HEK293 cells; assay type: cell-based
T1 construct: expressed in transfected cells; host or cells: HEK293
Description: (§1) Color development was stopped 5 min later by adding 0.05 ml 1 N HCl. Absorbance at 450 nm was measured on Titertek Multiscan MCC340 (ThermoFisher, Pittsburgh, Pa.). […]

[3] = test system: human mammary epithelial cells (HMEC); test: Human mammary epithelial cells proliferation ([14C]-thymidine); assay type: cell-based; conditions: Table 15; read-out: Proliferation HMEC EC50
Description: The plate was incubated 4 h at 37° C., 5% CO2 and 90% humidity.

[4] = biological target: T2, IGF-1 receptor (Homo sapiens, UniProt P08069); test: IGF-1 receptor phosphorylation assay, receptor transfected HEK293 cells; assay type: cell-based; design: expressed in transfected cells; host or cells: HEK293; conditions: Table 15; read-out: Receptor Phosphorylation IGF-IR EC50
Description: Color development was stopped 5 min later by adding 0.05 ml 1 N HCl. Absorbance at 450 nm was measured on Titertek Multiscan MCC340 (ThermoFisher, Pittsburgh, Pa.).

[5] = biological target: T3, insulin subtype B receptor (IR-B) (Homo sapiens, UniProt P06213); test: Insulin subtype B receptor phosphorylation, receptor transfected HEK293 cells; assay type: cell-based; design: expressed in transfected cells; host or cells: HEK293
Description: as §1

[6] = biological target: T2, IGF-1 receptor; test: IGF-1 receptor binding assay (competition, scintillation proximity); design: expressed in transfected cells; plasma membrane fragments; conditions: Table 15; read-out: Receptor Binding IGR-1R EC50
[7] = biological target: T3, insulin subtype B receptor (IR-B); test: Insulin subtype B receptor binding (competition binding); design: expressed in transfected cells; plasma membrane fragments; conditions: Table 15
[8] = test system: blood glucose; test: Comparative insulin tolerance test / insulin dose titration in mice
[9] = read-out: EC50 values (in nM), phosphorylation at the insulin subtype A receptor, experiment of FIG. 18A
[10] = Table 15, read-out: Receptor Phosphorylation IR-B EC50
[11] = read-out: EC50 values (in nM), phosphorylation at the insulin subtype B receptor, experiment of FIG. 18B
[12] = Table 15, read-out: Receptor Phosphorylation IR-A- EC50

Molecule | Half Life (hr) 20% Plasma/PBS | EC50 [2, 9] | EC50 [3] | EC50 [4] | EC50 [5, 10] | EC50 [5, 11] | EC50 [6] | EC50 [7] | other results
CC[C@H](C)[C@H](NC(=O)CN)C(=O)N[C@H](C(=O)N[C@@H](CC(=O)O)C(=O)N[C@@H](CCC(=O)O)C(=O)N[C@@H](C)C(=O)N[C@@H](C)C(=O)N[C@@H](Cc1ccccc1)C(=O)N[C@@H](CCCNC(=N)N)C(=O)N[C@@H](CO)C(=O)N[C@@H](C)C(=O)N[C@@H](CC(=O)O)C(=O)N[C@@H](CC(C)C)C(=O)N[C@@H](CCCNC(=N)N)C(=O)N[C@@H](CCCNC(=N)N)C(=O)N[C@@H](CC(C)C)C(=O)N[C@@H](CCC(=O)O)C(=O)N[C@@H](CCSC)C(=O)N[C@@H](Cc1ccc(NC(=O)[C@@H]2CCCN2C(=O)C(C)(C)N)cc1)C(=O)N[C@@H](C)C(=O)N[C@@H](C)C(N)=O)C(C)C [AiB Pro] (H-GIVDEAAFRSADLRRLEM[Phe(4-NH2)]([Pro-Aib])AA-NH2) | 2.1 h |  |  |  |  |  |  |  | 
CC[C@H](C)[C@H](NC(=O)CN)C(=O)N[C@H](C(=O)N[C@@H](CC(=O)O)C(=O)N[C@@H](CCC(=O)O)C(=O)N[C@@H](C)C(=O)N[C@@H](C)C(=O)N[C@@H](Cc1ccccc1)C(=O)N[C@@H](CCCNC(=N)N)C(=O)N[C@@H](CO)C(=O)N[C@@H](C)C(=O)N[C@@H](CC(=O)O)C(=O)N[C@@H](CC(C)C)C(=O)N[C@@H](CCCNC(=N)N)C(=O)N[C@@H](CCCNC(=N)N)C(=O)N[C@@H](CC(C)C)C(=O)N[C@@H](CCC(=O)O)C(=O)N[C@@H](CCSC)C(=O)N[C@@H](Cc1ccc(NC(=O)[C@H]2CCCN2C(=O)C(C)(C)N)cc1)C(=O)N[C@@H](C)C(=O)N[C@@H](C)C(N)=O)C(C)C [AiB dPro] (H-GIVDEAAFRSADLRRLEM[Phe(4-NH2)]([dP-Aib])AA-NH2) | 2.2 h |  |  |  |  |  |  |  | 
CC[C@H](C)[C@H](NC(=O)CN)C(=O)N[C@H](C(=O)N[C@@H](CC(=O)O)C(=O)N[C@@H](CCC(=O)O)C(=O)N[C@@H](C)C(=O)N[C@@H](C)C(=O)N[C@@H](Cc1ccccc1)C(=O)N[C@@H](CCCNC(=N)N)C(=O)N[C@@H](CO)C(=O)N[C@@H](C)C(=O)N[C@@H](CC(=O)O)C(=O)N[C@@H](CC(C)C)C(=O)N[C@@H](CCCNC(=N)N)C(=O)N[C@@H](CCCNC(=N)N)C(=O)N[C@@H](CC(C)C)C(=O)N[C@@H](CCC(=O)O)C(=O)N[C@@H](CCSC)C(=O)N[C@@H](Cc1ccc(NC(=O)CN(C)C(=O)[C@@H](N)CCCCN)cc1)C(=O)N[C@@H](C)C(=O)N[C@@H](C)C(N)=O)C(C)C [K Sar] (H-GIVDEAAFRSADLRRLEM[Phe(4-NH2)]([Sar-Lys])AA-NH2) | 5.9 h |  |  |  |  |  |  |  | 
proinsulin: larger linear precursor of insulin with 35-residue connecting peptide |  |  |  |  |  |  |  |  | potency relative to native insulin [1]: 2% to 9%
GEEEEEKGPEHLCGAHLVDALYLVCGDRGFYSSSSRAPPPSLPSPSRLPGPSD TPILPQKGIVDECCHRSCDLRRLENYCN (protein, listed as Homo sapiens) GEEEEEKGPEHLCGAHLVDALYLVCGDRGFYSSSSRAPPPSLPSPSRLPGPSDTPILPQKGIVDECCHRSCDLRRLENYCN |  | 0.8 ± 0.2 nM | 146 nM | 379 nM | 4.83 nM | 10.6 ± 5.06 nM | 36.9 nM | 5.44 nM | in vitro phosphorylation activity at the insulin subtype A receptor (result in words) ([2]; FIGS. 21, 23): nearly equivalent to native hormone; IC50 ([2]; read-out: Phosphorylation at Insulin Receptor Subtype A (IC50), Table 16A): 3.12 nM; IC50 ([5]; read-out: Phosphorylation at Insulin Receptor Subtype B (IC50), Table 16B): 1.05 nM; blood glucose lowering in insulin tolerance test (result in words) [8]: potent insulin receptor agonists
DP22: CTP-E5R-B chain-CTP(K)-A Chain (SEQ ID NO: 91) (protein, single chain insulin analog) MGSSSSKAPPPSLPSPSRLPGPSDTPILPQEEEEERGPEHLCGAHLVDALYLVCGDRGFYSSSSRAPPPSLPSPSRLPGPSDTPILPQKGIVDECCHRSCDLRRLENYCN |  | 0.97 ± 0.17 nM | 431 nM | 269 nM | 11.3 nM | 18.3 ± 10.3 nM | 438 nM | 16.4 nM | EC50 [2, 12]: 1.25 nM
DP22LysC: DP22 cleaved at the lysine of CTP to produce a two chain insulin (protein) chain 1: APPPSLPSPSRLPGPSDTPILPQEEEEERGPEHLCGAHLVDALYLVCGDRGFYSSSSRAPPPSLPSPSRLPGPSDTPILPQK chain 2: GIVDECCHRSCDLRRLENYCN |  | 0.39 ± 0.06 nM | 29.7 nM | 23 nM | 1.41 nM | 1.88 ± 0.52 nM | 58.8 nM | 3.71 nM | EC50 [2, 12]: 0.385 nM
